Measured values reported in patent US20260176336A1 (MESTAG THERAPEUTICS, published 2026).
Where a chain is given by its changes, count along the chain named.

B1: Clone 1.2 (VHH, not shown: small tags and cut ends)
VHH: EVQLVESGGGLVQPGGSLRLSCAASGSSIFSFEIMAWYRQAPGKQRELVAVINKGGEANYPDSVEGRFTISRDNAKNTVYLQMNSLRPEDTAVYYCNADAVPHGSYWGQGTLVTVSS
notes: monovalent anti-LTBR VHH; also called 1.2 (parental clone for 1.5)
B2: Clone 1.1 (VHH, not shown: small tags and cut ends)
VHH: EVQLVESGGGLVQPGGSLRLSCAASGRFFGIYDMYWYRQPPGKQRELVAISTSGGHTNYADSVKGRFTISRDNAKNTVYLQMNSLRPEDTAVYYCNIQRVDAPGMYWGQGTLVTV
notes: monovalent anti-LTBR VHH; also called 1.1 (parental clone for 1.7)
B3: Clone 3.4 (antibody, V domains shown)
VH: EVQLVESGGGLVKPGGSLRLSCVASGFTFSLAWMNWVRQAPGKGLEWVGHIKSRADGGSTDYAAPVKGRFTISRDDSKNTLYLHMNSLKTEDTAVYFCSRFYWNYVLDYWGQGTLVTVSS
VL: DIQMTQSPSSLSASVGDRVTITCRASQSINSYFNWYQQKPGKAPKLLIYAASGLQSGVPSRFSGSGSGTDFTLTISSLQPEDFATYYCQQSYSPPYTFGQGTNLEIK
notes: anti-FAP mAb (bivalent)
B4: Clone 3.1 (antibody, V domains shown)
VH: QLQLQESGPGLVKPSETLSLTCTVSGGSISSSTYYWGWIRQPPGKGLEWIGSIFYSGNTYYNPSLKSRVTISVDTSKNQFSLRLNSVTAADTAVYYCAREIIEPRPGYFDYWGQGTLVTVSS
VL: B3 VL with N30S, S31K, F33L, L46F, G53S, Y92N, P94I, Y96R, N103K, L104V
notes: anti-FAP mAb (bivalent)
B5: Clone 3.2 (antibody, V domains shown)
VH: QVQLVQSGAEVKKPGASVKVSCKASGYTFTGYYMHWVRQAPGQGLEWMGWIYPNTGGTNYAQNFQGRVTMTRDTSISTAYMELSSLRSDDTAVYYCARDDYNKNLDYWGQGTLVTVSS
VL: DIQMTQSPSTLSASVGDRGTITCRASQSIGSWLAWYQQKPGKTPKLLIYKASSLESGVPSRFSGSGSGTEFTLTISSLQPDDFATYYCQQYNSYFRTFGQGTKVEIK
notes: anti-FAP mAb (bivalent)
B6: Clone 4.18 (bispecific antibody)
heavy 1: not shown
heavy 2: QLQLQESGPGLVKPSETLSLTCTVSGGSISSSTYYWGWIRQPPGKGLEWIGSIFYSGNTYYNPSLKSRVTISVDTSKNQFSLRLNSVTAADTAVYYCAREIIEPRPGYFDYWGQGTLVTVSSASTKGPSVFPLAPSSKSTSGGTAALGCLVKDYFPEPVTVSWNSGALTSGVHTFPAVLQSSGLYSLSSVVTVPSSSLGTQTYICNVNHKPSNTKVDKKVEPKSCDKTHTCPPCPAPEAAGGPSVFLFPPKPKDTLMISRTPEVTCVVVDVSHEDPEVKFNWYVDGVEVHNAKTKPREEQYNSTYRVVSVLTVLHQDWLNGKEYKCKVSNKALPAPIEKTISKAKGQPREPQVCTLPPSRDELTKNQVSLSCAVKGFYPSDIAVEWESNGQPENNYKTTPPVLDSDGSFFLVSKLTVDKSRWQQGNVFSCSVMHEALHNHYTQKSLSLSPG
light: not shown
B7: Clone 3.3 (antibody, V domains shown)
VH: QVQLVQSGTEVKKPGASVKVSCKASGYTFTGYYMNWVRQAPGQGLEWVGWINPNSGDTNFAQKFQGRVTMTRDSSISTAYMELSRLRSDDTAVYYCARQFRGYSYGYGMDVWGKGTTVTVSS
VL: DIQMTQSPSSLSASVGDRVTITCRASQNIGSYLNWYQQKPGKAPKLLIYAASSLQSGVPSRFSGSGSGTDFTLTISSLQPEDFATYYCQQANSFPFTFGPGTKVDIK
notes: anti-FAP mAb (bivalent)
B8: Clone 1.4 (VHH, not shown: small tags and cut ends)
VHH: EVQLVESGGGLVQPGGSLRLSCKASGTTFSDRAFGWYRQAPGKQRELVATISTAGLTWYDVSVKGRFIISRDNPENTVYLQMNSLRPEDTAVYYCNTFRGNWGQGTLVTVSS
notes: monovalent anti-LTBR VHH; also called 1.4 (parental clone for 1.6)
B9: Clone 1.3 (VHH, not shown: small tags and cut ends)
VHH: EVQLVESGGGLVQPGGSLRLSCAASGRTFTNYRMAWFRQAPGKEREAVAAINWNGGGTYYADSVKGRFTISRDNAKNTVYLQMNSLRPEDTAVYYCAADSTGWGSYFDYWGQGTLVTVSS
notes: monovalent anti-LTBR VHH; also called 1.3 (parental clone for 1.8)
B10: Clone 4.14 (antibody, V domains shown)
VH: QVQLKESGPGLVQPSQTLSLTCTVSGFSLTTYSVHWVRQHSGKSLEWMGRMWTDGDTSYNSAFTSRLSISRDTSKSQVFLKMNSLQTEDTGTYYCARGYWYFDFWGPGTMVTVSS
VL: DVQMTQSPSYLAASPGESVSIRCKASKSISNNLAWYQEKPGKANKLLIHSGSTLQSGTPSRFSGSGSGTDFTLTIRSLEFEDFAVYYCQQYNEYPYTFGAGTKLELK

Legend:
[1] = biological target: T1, human LTBR endogenously expressed on cells (HepG2, A549, A375, HCC1187, RPMI-7951, primary human breast CAFs) (human, UniProt P36941 31-435); assay: flow cytometry, HepG2 cells, VHH detected by anti-FLAG
T1 construct: also called lymphotoxin beta receptor; TNFRSF3
T1 sequence (P36941 31-435): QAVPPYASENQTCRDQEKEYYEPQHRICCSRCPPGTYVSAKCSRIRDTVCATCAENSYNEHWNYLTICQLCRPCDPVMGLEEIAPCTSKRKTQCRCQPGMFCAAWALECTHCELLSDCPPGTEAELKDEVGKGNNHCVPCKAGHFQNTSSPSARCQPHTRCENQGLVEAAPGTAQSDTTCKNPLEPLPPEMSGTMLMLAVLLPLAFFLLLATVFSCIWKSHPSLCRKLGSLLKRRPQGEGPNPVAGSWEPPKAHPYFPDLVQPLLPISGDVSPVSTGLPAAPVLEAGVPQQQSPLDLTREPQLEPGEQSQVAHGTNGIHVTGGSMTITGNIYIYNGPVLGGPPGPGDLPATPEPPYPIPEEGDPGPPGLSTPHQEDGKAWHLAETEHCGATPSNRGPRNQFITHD
Method: The purified proteins were tested for binding to endogenously expressed human LTBR in HepG2 cells. The expression level was confirmed with anti-LTBR clone CBE-11 (“huCBE11” as disclosed in WO2004002431). The HepG2 cells were resuspended to a final concentration of 1.0×10⁶ cells/ml in FACS buffer. A series dilution of purified VHHs was incubated with mouse anti-FLAG biotinylated antibody (Sigma Aldrich, cat. #F9291-1MG) at 5 μg/ml in FACS buffer for 30 min at RT with shaking. Cell suspensions were distributed into a 96-well v-bottom plate and incubated with the above-described VHH/antibody mixture for 1 hour on ice while shaking. VHH binding to cells was detected with streptavidin R-PE (Invitrogen, cat. #.SA10044) at 1:400 dilution (0.18 μg/ml) in FACS buffer, incubated for 30 minutes on ice with shaking and protection from light. The cells were acquired by flow cytometry. The data was analysed using FloJo V10 and GraphPad Prism. The EC50 values can be found in.

[2] = biological target: T2, human recombinant LTBR fused on human Fc (SinoBiological, cat. #10581-H02H) (human, UniProt P36941 31-227); assay: SPR (Biacore T200), LTBR-Fc on CM5 chip, periplasmic extract as analyte
T2 construct: bought protein; also called human LTBR human IgG1 Fc chimera protein; not shown: human IgG1 Fc
T2 sequence (P36941 31-227 limits assumed): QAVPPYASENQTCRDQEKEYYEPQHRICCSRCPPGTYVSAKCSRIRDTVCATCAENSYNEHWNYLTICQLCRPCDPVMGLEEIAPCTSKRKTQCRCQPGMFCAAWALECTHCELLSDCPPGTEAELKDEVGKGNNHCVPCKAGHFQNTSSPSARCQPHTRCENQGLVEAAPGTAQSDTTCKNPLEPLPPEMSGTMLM
Method: (§1) To confirm species cross-reactivity, either human or cynomolgus recombinant LTBR-fused on human Fc (SinoBiological, cat. #10581-H02H and 90101-C02H) were immobilised on CM5 sensor chips (cat. #CFJB 334). 1:5 dilutions of crude periplasmic extracts of clones expressing VHHs were injected at 30 μl/min for 2 min in HBS-EP pH 7.4 buffer to allow for binding to chip-bound antigen. Next, an HBS-EP pH7.4 buffer without VHHs was injected for 5 minutes at the same flow rate to enable spontaneous dissociation of bound VHHs. Surface regeneration was done with 10 ul of 1 mM Glycine pH 1.5/1 M NaCl injected twice between samples. From the sensorgrams obtained on a BiacoreT200 machine, koff values were calculated by fitting a 1:1 interaction model (Langmuir model) using Insight Evaluation Software (Biacore). Based on this analysis, four clones were selected for further evaluation, and the results are included in.

[3] = biological target: T3, cynomolgus recombinant LTBR fused on human Fc (SinoBiological, cat. #90101-C02H) (cynomolgus (Macaca fascicularis), UniProt P36941 31-227 (human entry)); assay: as above
T3 construct: bought protein
T3 sequence (P36941 other isoform, or with tags, fused parts or gaps C02H C02H limits assumed): as the sequence (P36941 31-227 limits assumed) above, with A2V, A7G, Q24R, I45S, N163D, K181R, L184S, P186S counted along it
Method: as §1

[4] = biological target: T4, human FAP expressed on cells (transfected HEK293; FAP-CHO-K1 recombinant cell line, BPS cat no. 79947) (human, UniProt Q12884 1-760); assay: flow cytometry, human FAP-transfected HEK293 cells
T4 construct: also called HuFAP-HEK293; Hek-FAP
Method: The binding of antibodies to human FAP expressed on transfected HEK293 cells was measured by FACS. In addition, binding to parental HEK293 was tested to confirm antibody specificity. In short, the cells were resuspended in the FACS binding buffer and live/dead efluro450 viability dye was added at a 1:1000 dilution to the cell suspension, followed by incubation at room temperature in the dark for 30 minutes. The cells were then diluted to 2 e5/ml, and 100 ul was added to wells of a 96-well U-bottom plate as required. […] The cells were pelleted by centrifugation, and the supernatant was discarded, followed by the addition of a series of dilutions of anti-FAP antibodies and incubation for 45 minutes at 4° C. in the dark. Cells were washed two times with PBS with 3% (w/v) BSA before adding 60 ul of fluorescently labelled secondary antibody (goat anti-human IgG) diluted to 1:200 in PBS. Incubation continued at 4 C for at least 30 minutes, followed by two washes in PBS pH 7.4. Cells were either fixed with 2% PFA (30 minutes at 4° C.) followed by washout and storage in 100 ul of PBS or immediately analysed on a Flow Cytometer. The data was analysed using FloJo V10 and GraphPad Prism. No binding to the HEK parental cell line was detected for any tested clones, confirming the specific interaction between anti-FAP antibodies and the FAP receptor. The results are summarised in.

[5] = biological target: Human FAP (Acro), recombinant protein (human, UniProt Q12884 26-760); assay: SPR (Carterra LSA), antibody captured by anti-human Fc, FAP as analyte
Method: (§2) Binding of anti-FAP antibodies to human and cynomolgus FAP was investigated by Surface Plasmon Resonance (SPR) on Carterra LSA. An EC30M chip was used to capture the test antibodies. The chip was activated for bioconjugation using EDC and sNHS in MES pH 5.5 to prepare the chip for amine coupling. Goat anti-human IgG Fc antibody was then captured to the chip via incubation for 10 minutes. Excess conjugation sites were quenched with 1M Ethanolamine pH 8. To measure monovalent binding kinetics, antibodies were printed/spotted onto the chip and allowed to bind to the goat antibody, followed by subsequent washing. After the preparation, the printed chip was exposed to repeated rounds of association and dissociation with increasing analyte concentrations. In this work, recombinant proteins (Human FAP (Acro) or cyno FAP His (Acro)) were serially diluted across a range starting at 1500 nM with 3-fold dilutions and 10 points. The curves were fitted to global fit in a 1:1 binding model to obtain KD values. The binding affinity to both human and cynomolgus FAP is reported in.

[6] = biological target: T5, cyno FAP His (Acro), recombinant protein (cynomolgus (Macaca fascicularis), UniProt Q12884 26-760 (human entry)); assay: as above
T5 construct: bought protein used as analyte on Carterra LSA
Method: as §2

[7] = biological target: T1, human LTBR endogenously expressed on …; assay: cell-based or functional assay
[8] = biological target: T1, human LTBR endogenously expressed on …; assay: cell-based or functional assay; remark: listed apart in the source
[9] = biological target: T1, human LTBR endogenously expressed on …; assay: cell-based or functional assay; remark: listed apart in the source
[10] = biological target: T4, human FAP expressed on cells …; assay: flow cytometry, HEK293-FAP overexpressing cells
[11] = biological target: T6, mouse LTBR on cells (4T1 tumor cell line; primary mouse lung fibroblasts) (mouse, UniProt P50284 31-415); assay: cell-based or functional assay
T6 sequence (P50284 31-415): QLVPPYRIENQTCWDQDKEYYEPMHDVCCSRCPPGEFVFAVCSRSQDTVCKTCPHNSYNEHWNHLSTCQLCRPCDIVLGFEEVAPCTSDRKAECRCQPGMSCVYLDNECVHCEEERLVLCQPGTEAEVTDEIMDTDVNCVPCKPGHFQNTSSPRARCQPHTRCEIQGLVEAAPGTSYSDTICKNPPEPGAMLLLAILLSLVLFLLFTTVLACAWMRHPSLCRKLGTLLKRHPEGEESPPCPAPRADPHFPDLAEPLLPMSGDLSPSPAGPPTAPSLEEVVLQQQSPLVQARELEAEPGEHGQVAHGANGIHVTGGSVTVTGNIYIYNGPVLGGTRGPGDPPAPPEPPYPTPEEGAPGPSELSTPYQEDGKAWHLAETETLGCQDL

[12] = biological target: T6, mouse LTBR on cells (4T1 tumor cell …); assay: cell-based or functional assay; remark: listed apart in the source

| Binder | EC50 [1] | koff [2] | koff [3] | EC50 [4] | Kd [5] | Kd [6] | also measured |
| --- | --- | --- | --- | --- | --- | --- | --- |
| B1 | 1600 pM | 0.00069 s⁻¹ | 0.0026 s⁻¹ |  |  |  |  |
| B2 | 410 pM | 0.0008 s⁻¹ | 0.0014 s⁻¹ |  |  |  |  |
| B3 |  |  |  | 1100 pM | 33 pM | 30 pM |  |
| B4 |  |  |  | 1700 pM | 40 pM | 51 pM |  |
| B5 |  |  |  | 700 pM | 47 pM | 28 pM |  |
| B6 |  |  |  |  |  |  | HepG2 Reporter assay, HepG2:FAP-CHO-K1 Co-culture EC50 [7]: 23 pM; CCL19 upregulation, HCC1187:CAF Co-culture EC50 [8]: 120 pM; chemokine (CCL5) induction in RPMI-7951 EC50 [9]: 67 pM; EC50 [10]: 1000 pM |
| B7 |  |  |  | 600 pM | 23 pM | 21 pM |  |
| B8 | 2300 pM | 0.0018 s⁻¹ | 0.00097 s⁻¹ |  |  |  |  |
| B9 | 1200 pM | 0.0038 s⁻¹ | 0.0031 s⁻¹ |  |  |  |  |
| B10 |  |  |  |  |  |  | 4T1:CHO-FAP co-culture CCL5 read-out EC50 [11]: 280 pM; 4T1:CHO-FAP co-culture CCL5 read-out EC50, 4.14 + cross-linking antibody [11]: 96 pM; 4T1 monoculture CCL5 read-out EC50 [11]: 470 pM; 4T1 monoculture CCL5 read-out EC50, 4.14 + cross-linking antibody [11]: 140 pM; ICAM1 induction in PMLF EC50 [12]: 63 pM; ICAM1 induction in PMLF EC50, 4.14 + cross-linking antibody [12]: 21 pM |
